# Assay results from the nanobody polyreactivity screen of Harvey et al. (2022).
# Test: yeast display, Sf9 membrane polyspecificity reagent, FACS + sequencing; frameworks hold sequencing errors
# Procedure, shortened: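 Genes from sorted yeast were amplified by colony PCR, read by MiSeq 2 × 250 sequencing and filtered on CDR length. These cells carried a synthetic nanobody library in Saccharomyces cerevisiae BJ5465 and were sorted by FACS into low and high (top ~1%) gates on anti-HA and streptavidin fluorescence. Polyreactivity is labelled according to the gate of origin.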
sequence,measurement,value
QVQLVESGVGLVQAGGSLRLSCAPSGFTFGRYAMGWYRQAPGKEREFVASISRSGGSTNYADSVKGRFTISRDNAKNTVYLQMNSLKPEDTAVYYCARDSWLHYRWGYDYWGQGTQVTVSS,polyreactivity (PSR sort gate),high polyreactivity
QVQLVESGVGLVQAGGSLRLSSAASGFTFVSNDMGWYRQAPGKERELVAAIRYRGGDTYYADSVKGRFTISRDNAKNTVYLQMNSMKPEDTAVYYCAVDVATYTAGWYYHGYDYWGQGTQVTVSS,polyreactivity (PSR sort gate),low polyreactivity
QVQLVESGVGLVQAGGSLRLSSADSGRTSPGNAMGWYRQAPGKETELVAAINVSGGSTYYADSVKGRFTISRDNAKNTVYLQMNSLKPEDTAVYDCATDTGYPYSYDLYDSYYWGQGTQVTVSS,polyreactivity (PSR sort gate),low polyreactivity
QVQLVESGVGLVQAGGSLRVSCAASGSICNYYAMVWYRQAPGKERELVATISSGGNTKYADSVKRRFTISRDNAKNTVSLQMNSQKPEDTAVYYCAARWQHSGYRDRYWYDYWGQGTQVTVSS,polyreactivity (PSR sort gate),low polyreactivity
QVQLVESGVGLVQAGGSLSLSCAASGRTFAYNAMGWYRQAAGKERELVAAINGDGGSTYYADSVKGRFTISRDNAMNTDYLQMISLKPEDTAVYYCAADLKYDGAYDYWGQGTQVTVSS,polyreactivity (PSR sort gate),high polyreactivity
QVQLVESGVGLVQSGGSLRLRCAASGFTFVSYALGWYRQAPGKERELVASISKRGGTTYYADSVKGRFTISRENAKNTVYLQMNSLKPEDTAVYYCNARDTRRYVTYDSGYDYWGQGTQVTVSS,polyreactivity (PSR sort gate),high polyreactivity
QVQLVESLVGLVQAVGSLRLSCAAYGFIFAFDSMGCYRHAPRKERELVAAIRTGGSKNYADSVKGRFTISRDNAKTTVYLQMNSLKPEDTAVYNCAANGRVGFWRWERDYWGQGTQVTVSS,polyreactivity (PSR sort gate),high polyreactivity
QVQLVESRGGIVQAGGSLRLSCAASGFTFYFYAKGWYRQAPGKERELVAGISRGSRTNYADSVKGRFTISRDNAKNTVYLQMNSLKPEDTAVYYCAAEVSYWGLGTQVTVSS,polyreactivity (PSR sort gate),low polyreactivity
QVQLVESRGGKVQAVGSLRLSCAASGLTFYTYAMGWYRQEPGKDRELVAAIRYRGGRSNYADSVKGRFTISRDNANNTVYLQMNSLKPEDTAVYYCAARSILVTQAYGYWGQGTQVNVSS,polyreactivity (PSR sort gate),high polyreactivity
QVQLVESRGGLVQAEGSLRLSCAASGYTFTSNDMGWYRQAPGKERELVAAITWSGGTTYYADSVKGRFTISRDNAKNTVYLQMNSLKPEDTSVYYFAADVSLVYPYSYRYYYWGQGTQVTVSS,polyreactivity (PSR sort gate),low polyreactivity
QVQLVESRGGLVQAGGRLRLSCAASGSIFDWYAMGWYRQAPGKERELVADITWSGDSTYYADSVKGRFTISRDNAKNTVYLQMNSLKPEDTAVYYCAADIWFNTYYEYDYWGQGTQVTVSS,polyreactivity (PSR sort gate),high polyreactivity
QVQLVESRGGLVQAGGSHRLSCAASGITILQYAMGWYRQAPRKERELVAAISRRGGNTYYADSVKGRFTISRDNAKNTVYLQMNSLKPEDTAVYYCAALSSFQSEYDYWGQGTQLTVSS,polyreactivity (PSR sort gate),high polyreactivity
QVQLVESRGGLVQAGGSIRLSCAASGITFGSYAMGWYRQAPGKERELVAAIDTSGDDTYYADSVKGRFTISRDNAKNTVYLQMNSLNPEDTAVYYCNAVSTASDEYDYWGQGTQVTVSS,polyreactivity (PSR sort gate),low polyreactivity
QVQLVESRGGLVQAGGSLGLSCAASGRIFSGYAMGWYRKAPGKERELVAAISGSGGTTYYADSVKGRFTISRDNAKNTVYLQINSLKPEDTAVYYCAVVIGVGYGYYYWGQGTQVTVSS,polyreactivity (PSR sort gate),low polyreactivity
QVQLVESRGGLVQAGGSLRISCAASGNIFLDYVMGWSRQAPGKERELVAAINSGGSTYYADSVKGRFTISSDNAKNTVYLQMNSLKPEDTAVYYCAADDYYKFDYWGQGTQVTVSS,polyreactivity (PSR sort gate),low polyreactivity
QVQLVESRGGLVQAGGSLRLSCAASGFIFNYYVMGRYRQAPGKERELVAGITKRGDRTYYADSVKGRFTISRDNAKNTVYLQMNSLKPEDTAVYYCAALARSFANSYGYWGQGTQVTVSS,polyreactivity (PSR sort gate),high polyreactivity
QVQLVESRGGLVQAGGSLRLSCAASGFIFSYYAMGWYRQAPGKERELVAAISGLGGSTYYADSVKGRFTISRDNAKNTVYLQMNSLKPEDTAVYYCAATTLRYYRHGDYWGQGTQVTVSS,polyreactivity (PSR sort gate),low polyreactivity
QVQLVESRGGLVQAGGSLRLSCAASGFIFVSYTMGWYRQAPGKERDLVATITLSDGSTYYADSVQGRFTISRDNAKNTVYLQMNSLKPEDTAVYSGNKDKVVVRYDYWGQGTQVTVSS,polyreactivity (PSR sort gate),low polyreactivity
QVQLVESRGGLVQAGGSLRLSCAASGFIITQYAMGWYRQAPGKERELVAAISGRGGSTYYADSVKGRFTISRDNAKNTVYLQMNSLIPEDTAVYYCNTVRIGPPQDYDYWGQGTQVTVSS,polyreactivity (PSR sort gate),high polyreactivity
QVQLVESRGGLVQAGGSLRLSCAASGFTFDIYAMGWYRQAPGKERELVAAINYSGARTYYADSVKGRFTISRDNAKNTVYLQMNSLNPEDTAVYYCNRAARIKYDYWGQGTQVTVSS,polyreactivity (PSR sort gate),high polyreactivity
QVQLVESRGGLVQAGGSLRLSCAASGFTFIGYAMGWYRPEPGKERELVAPITQSGGSTFYADSVKGRFTISRENAKNTVYLQMNSLKPEDTAVDDCNAYRKFRYCGQGTQVTVSS,polyreactivity (PSR sort gate),low polyreactivity
QVQLVESRGGLVQAGGSLRLSCAASGFTFSWYAMGWYRQAPGKERELVAAITRSGGSTNYADSVKGRFTMSRDNAKNTVYLQMNSLKPEDTAVYYCAARYSPGFGYWGKGTQVTVSS,polyreactivity (PSR sort gate),high polyreactivity
QVQLVESRGGLVQAGGSLRLSCAASGITSRFYVMGWYRKAPGKERELVAAISTRGTSTYYADSVKGRFTLSRDNAKNTVYLQMNSLKPEDTAVYYCAAVGGYPYQYPYGSWGQGTQVTVSS,polyreactivity (PSR sort gate),high polyreactivity
QVQLVESRGGLVQAGGSLRLSCAASGPTFLINAMGCYRQAPGKETELVAEITGRGSSTYYADSVKGRFTISRDNAINTVYLQMNSLKAEDTAVYYCNAVLRKMTYDYWGQGTQVTVSS,polyreactivity (PSR sort gate),high polyreactivity
QVQLVESRGGLVQAGGSLRLSCAASGRIFVVYTMGWYRQAPGKERELVAAISWRGGTTYYADSVKRRFTISRDNAKTTVYLQMTSLIPEDTAVSYCATREWSPRGSYDYSGQGTQVTVSS,polyreactivity (PSR sort gate),high polyreactivity
QVQLVESRGGLVQAGGSLRLSCAASGRTFTLNAMGWYRQAPGKERELVARIDWRGITYADSVKGRFTISRDNAKNTVYLQMNSLKPEDTAVYYCAADYVQGFGFYYQWHYDYWGQGTQVTVSS,polyreactivity (PSR sort gate),low polyreactivity
QVQLVESRGGLVQAGGSLRLSCAASGSIFYSNFMGWYRPAPGKERELVARITDAGSTNYADSVKGRFTISRDNAKNTVYLQMNSQKPEDTAVYYCNARLVIYTYDYWGQGTQVTVSS,polyreactivity (PSR sort gate),low polyreactivity
QVQLVESRGGLVQAGGSLRLSCAASGSTFSANTMGWNRQAPGKERELVAGITNTGDTYYADSVKGRFTLSRDNAKNTVYLQMNSLKPEDTAVYYCAADSWRLTDGAYWSTVYYWGQGNQVTVSS,polyreactivity (PSR sort gate),low polyreactivity
QVQLVESRGGLVQAGGSLRLSCAASGSTFYFYDMGLYRQAPGKERELVGAISSSGGDTYYADSVKGRFTISRDNAKNTVYLQMNSLKPEDTAVYYCAAGQLYSGYEYWGQGTQVTVSS,polyreactivity (PSR sort gate),low polyreactivity
QVQLVESRGGLVQAGGSLRLSCAAYGFTFPNNAMGWNRQAPGKERELVAAITWSGRSTYADSVKGRFTISRDNAKNTVYLQMNSLKPEDTAVDYCYTRGTYLSKTLPSAYDYWGQGTQVIVSS,polyreactivity (PSR sort gate),low polyreactivity
QVQLVESRGGLVQAGGSLRLSCADSGRIFWYYDMGCYRQAPWKDRELVAAITSGGRTYYADYVKGRFTISRDNAKNTVYLQMNSLKPEDTAVYYCAAEGFYTSGSPYSGGLDYWGQGTQVTVSS,polyreactivity (PSR sort gate),low polyreactivity
QVQLVESRGGLVQAGGSLRLSCAPSGSTFHYYAMGWYRQAQGKERELDAAISDRDGGTFYADSVKGRFTISRDNATNTVYLQINSLKPEDTAVYYCYARKRGARFILGYDYWGQGPQVTVSS,polyreactivity (PSR sort gate),low polyreactivity
QVQLVESRGGLVQAGGSLRLSFGASGRTFRWYAMVWYRQAPGKERELVAAITYSVGSTYYADSVKGRFTISRDNAKNTVYLQMNSLKPEDSAVYSCAADSYPYRYRGKYSRLDYWGQGTQVTVSS,polyreactivity (PSR sort gate),low polyreactivity
QVQLVESRGGLVQAGGSLRLSSAASGLTLYGYTMGWYRQAPGKERELVATMTSGRDSTYYADSVKGRFTISGDNAKNTFYLEMHCLKPEDTAVYYCGAPYAGWRDGGDYWGQGTQVTVSS,polyreactivity (PSR sort gate),low polyreactivity
QVQLVESRGGLVQAGGTLRLSCAPSGLTSYGNTRGWDIPAPGKERELVAAISKRGTSTYYADSVKGRFTISRDNAMNTVYLQMNSLKPEDTAVYYCAAAYRGREVEYISWGQGTQVTVSS,polyreactivity (PSR sort gate),high polyreactivity
QVQLVESRGGVVQAGGSLRLSSDDSGFTFYYYAMGWYRQAPGKERQLVAPITKSGGSTYYADSVKWRFTISRDNSKNSLYVKFNRLKPEDTAVYYCNKVTYSSDQYFGGDGYFWGQGTQVTVTS,polyreactivity (PSR sort gate),high polyreactivity
QVQLVESRGRLDQAGGSLRLSCAAYARIFAVYAMGWYRQAPGKESEFVATITYNAGSTYYADSVKGRFTISRDNAKNTVNLQMNSLKPEDTAVYYCAVELDSEPAYEPWTEYDYWGQGTQVTVSS,polyreactivity (PSR sort gate),low polyreactivity
QVQLVESRGRLVQAGGSLRLSCAASGITFYVYTMGWYRQAPGKERELVAAINGSGGSTNYADSVKGRFTISRDNAKNSVYLHMNSLKTEDTAVYYCAADWSLRLYDYWGQGTQVTVSS,polyreactivity (PSR sort gate),low polyreactivity
QVQLVESRGVLVQAGGSLRLSCAASGFTFDYNAMGWYRQAPGKERELVAVISSSGSRTYYADSVKGRFTISRDNAKNTVYLQMNSLKPVDTAVYYCARDNWQWYPSTWYDYWGQGTQVTVSS,polyreactivity (PSR sort gate),high polyreactivity
QVQLVESRGVLVQAGGSLRLSCAASGLTFGGNAKGWYRQAPGKERELVAAISWSDDTTDYADSVKGRFTISRDNAKNTVYLQMNSLKPEDTAVYYCAARLPFEHVDYWGQGTQVTVSS,polyreactivity (PSR sort gate),low polyreactivity
QVQLVESRGVLVQAGGSLRLSCAASGSIFEWYAMGWYRQAPGKERELVAVISDGSTNYADSVKGRFTISRDNAKKTVYLQMNSLKPEDPAVSYCAADPFDGYSSSEYDYWGQGTQVTVSS,polyreactivity (PSR sort gate),low polyreactivity
QVQLVESRRGLVQAGGSLRLSCASSGFTVCWYAMGLYRPAPGTERELVAAISSGGSTNYADSVKGRFTISRDNAKNTVYFQMNSLKPEDTAVYYCARRLWYSDRYSARWQYDYWGQGTQVTVSS,polyreactivity (PSR sort gate),high polyreactivity
QVQLVESVGCLVQPGGSLRLSCATSGSIFLLYARGWYRQPPGKERELVAAITSSGGSTNYADSVKGRITISRDTAKNTVYLQMNSLKPEDTEVYYSATAPYAYTILGSRFDYWGKGTQVTVSS,polyreactivity (PSR sort gate),low polyreactivity
